Where two headings read alike, the source gives them in different places. One block for each molecule: values may come before it.
Columns and labels:
MCF-7/MX cells = experiment: SRB method, sensitivity of cells to chemotherapy drugs; assay type: cell-based; details: Homo sapiens, MCF7/MX, read-out: IC50 of chemotherapy drug
Experimental: The SRB method was used to detect the sensitivity of cells to chemotherapy drugs: 800 μg/L mitoxantrone was added in the process of culturing MCF-7/MX cells to maintain drug resistance, and the drug administration stopped two weeks before experiment. 100 μg/mL CK8-1R5 monoclonal antibody and/or 100 μg/mL BCRP inhibitor KS176 (Bai Olette, product No.: M01428) were added into cell culture wells of MCF-7/MX cells, and the culture medium was added for blank control. After 24 hours of culture, digestive cells were inoculated into a 96-well plate, with 2000 cells/well, and 3 double wells. The cells were continued to be cultured for 24 h until complete adherence. After adding different concentrations of chemotherapy drugs (mitoxantrone, topotecan, and daunorubicin) to act for 48 h, the culture was terminated. 50 IA of pre-cooled 50% (mass/volume) trichloroacetic acid was added into each well for immobilizing cells, and the culture plate was transferred into a refrigerator at 4° C. after standing for 1 h; the culture plate was taken, each well was washed with deionized water 5 times to remove TCA, and then dried in air; after complete drying, 100 μl of 0.4% SRB prepared with 1% acetic acid was added into each well and stained for 30 min at room temperature, and then the solution in each well was discarded; the well was washed 5 times using 1% acetic acid to remove unbound dye, and dried in air; 150 μl of 10 mM Tris alkaline solution with pH 10.5 was used for dissolving the sample in each well, the sample was oscillated for 5 min on a flat oscillator, and the absorbance of each well at 490 nm was measured on a BioRad microplate reader. The IC50 value was calculated using Prism software.

CK8 protein [1] = target: T1, CK8 protein (Homo sapiens, UniProt P05787); experiment: Indirect ELISA titer of monoclonal antibody; assay type: binding
T1 construct: made in house; host or cells: E. coli BL21 (DE3), vector pET-28a(+)
T1 sequence (P05787 1-483): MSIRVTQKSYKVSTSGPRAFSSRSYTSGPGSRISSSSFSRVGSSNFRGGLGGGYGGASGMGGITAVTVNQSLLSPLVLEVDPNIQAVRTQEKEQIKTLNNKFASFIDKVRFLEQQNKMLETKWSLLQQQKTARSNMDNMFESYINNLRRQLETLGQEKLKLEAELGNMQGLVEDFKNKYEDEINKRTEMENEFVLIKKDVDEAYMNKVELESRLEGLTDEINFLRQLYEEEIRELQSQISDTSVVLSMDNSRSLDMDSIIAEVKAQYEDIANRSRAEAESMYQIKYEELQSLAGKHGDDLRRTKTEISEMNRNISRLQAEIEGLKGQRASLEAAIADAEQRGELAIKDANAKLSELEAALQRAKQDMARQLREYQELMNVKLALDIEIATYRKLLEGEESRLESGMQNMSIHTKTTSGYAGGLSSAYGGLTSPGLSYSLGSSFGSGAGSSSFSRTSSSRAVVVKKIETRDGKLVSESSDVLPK
Experimental: The titer of monoclonal antibodies was determined using an indirect ELISA method. An ELIASA plate (100 μl/well) was coated with […] of purified recombinant CK8 protein overnight at 4° C., and sealed for 1 h at 10% BSA room temperature. Different concentrations of CK8-1R5 monoclonal antibodies subjected to multiple dilution were added respectively, and incubated at 37° C. for 1 h. After washing 3 times with 0.05% PBST, HRP labeled sheep anti-mouse IgG with a dilution of 1:2000 was added, and the obtained mixture was incubated at 37° C. for 1 h and then washed. A developing agent ABTS was added, and the absorbance (A) value at a wavelength of 405 nm was read on microplate reader. Simultaneously, SP2/0 myeloma cell culture supernatant was used as negative control. The highest dilution ratio of the sample that produces a positive reaction was used as its potency.

CK8 protein [2] = target: T1, CK8 protein; experiment: Specificity identification by ELISA; assay type: binding; details: plate coated with CK8 protein, MCF7 cell lysate, BSA, Escherichia coli lysate, NIH3T3 lysate; FIG. 3
Experimental: Specificity identification: each 1 μg of CK8 protein, MCF7 cell lysate, BSA, Escherichia coli lysate and mouse fibroblast NIH3T3 lysate was used to coat the ELISA plate, with PBS wells as blank control. After washing with PBS, 2.5% skimmed milk was added and the plate was sealed at room temperature for 1 h. After washing with PBS, 1:10 diluted cell culture supernatant (monoclonal antibody, primary antibody) was added, the plate was incubated at 37° C. for 1 and washed with 0.05% PBST 3 times, 1:2000 diluted HRP labeled sheep anti-mouse IgG (second antibody) was added, washed after incubation at 37° C. for 1 h, a developing agent ABTS was added, and the absorbance (A) value at 405 nm wavelength was read on the microplate reader.

CK8 protein [3] = target: T1, CK8 protein; experiment: Binding ability test (antibody on aminopropyl sensor, spectral phase difference); details: fit from binding and dissociation phase difference; read-out: affinity for CK8 protein
Experimental: Binding ability test: 1 mg of CK8-1R5 monoclonal antibody was taken and dispersed into 1 mL of PBS buffer solution; the prepared antibody dispersion was immobilized on an aminopropyl sensor, the sensor immobilized with the antibody was balanced in PBS buffer and then interact with different concentrations of CK8 protein solutions respectively, and then the spectral phase difference caused by CK8 protein binding to the antibody was recorded. After binding equilibrium, the sensor was placed in PBS buffer, the spectral phase difference caused by protein dissociation from the antibody was recorded, and the antibody's affinity to the protein was fit based on the phase difference.

MCF7/MX cells = experiment: Tumor growth in mice subcutaneously inoculated with MCF7/MX cells; assay type: in vivo; details: after 14 days of administration; FIG. 4
Experimental: MCF-7 was selected as a source cell of a tumor exosome, and the culture medium was DMEM with 10% Fetal bovine serum. After being transferred to a cell incubator (37° C. constant temperature, volume fraction, 5% CO2) for 48 h, the supernatant of tumor cells was collected and gradient centrifuged (2000×g, centrifuge, 20 min, 10000×g, centrifuge for 30 min) to remove cell debris, large vesicles were removed using a 0.22 μm filter; the filtrate was centrifuged for 70 min at 100000×g, the supernatant was discarded and then resuspended with 100 μL of DPBS at the bottom of a centrifuge tube, and the exosomes were recovered and stored at […] in refrigerator for future use. […]
After the inguinal areas of mice were subcutaneously inoculated with 5×10^5 MCF7/MX cells for 7 d, tumor bearing mice were randomly divided into 5 groups according to random number table: blank control group, exosome group loaded with erythromycin, exosome group loaded with CK8-1R5 monoclonal antibody combined with erythromycin, CK8-1R5 monoclonal antibody group, and erythromycin group. […] After 14 days of the first administration, the mice were euthanized and the tumor volume=short diameter^2×Long diameter/2 was measured[…].

[4] = MCF-7/MX cells without inhibitor, drug 48 h

IC50 (MCF-7/MX cells; [4]): 18 ± 1.34 µM
Molecule: CC[C@@]1(O)C(=O)OCc2c1cc1n(c2=O)Cc2cc3c(CN(C)C)c(O)ccc3nc2-1 [Topotecan, topotecan]

absorbance (A) value at 405 nm (CK8 protein [1]; antibody dilution 1:400): 1.679
absorbance (A) value at 405 nm (CK8 protein [1]; antibody dilution 1:800): 1.136
absorbance (A) value at 405 nm (CK8 protein [1]; antibody dilution 1:1600): 0.821
absorbance (A) value at 405 nm (CK8 protein [1]; antibody dilution 1:3200): 0.596
absorbance (A) value at 405 nm (CK8 protein [1]; antibody dilution 1:6400): 0.284
Kd (CK8 protein [3]): 0.00633 µM
B1: CK8-1R5: mouse monoclonal antibody (IgG1) specifically binding to CK8; heavy chain variable region SEQ ID NO: 1, light chain SEQ ID NO: 2 (antibody, V domains shown)
VH: EVQLVESGGGLVQPGGSLRLSCAASGFSLSIPYIYWVRQAPGKGLEWVGAQGCGNFYLGWFGVMSRFTISKDNSKNTLYLQMNSLRAEDTAVYYCARFYGMVEIEHVEDVWGQGTLVTVSS
VL: AYQMTQSPSSVSASVGDRVTITCVQPKPHPMCRKWYQQKPGKAPKLLIYMQKDQDNGVPSRFSGSGSGTDFTLTISSLQPEDFATYYCFFPRSRTVCDPKEFGGGTKVEIK
modifications: Glu Val Gln Leu Val Glu Ser Gly Gly Gly Leu Val Gln Pro Gly Gly Ser Leu Arg Leu Ser Cys Ala Ala Ser Gly Phe Ser Leu Ser Ile Pro Tyr Ile Tyr Trp Val Arg Gln Ala Pro Gly Lys Gly Leu Glu Trp Val Gly Ala Gln Gly Cys Gly Asn Phe Tyr Leu Gly Trp Phe Gly Val Met; The amino acid sequence of the present application is artificially synthesized
specificity of binding (CK8 protein [2]): only binds to CK8 protein or MCF7 cell lysate expressing the CK8 protein
tumor volume difference versus blank control group (MCF7/MX cells): no statistically significant difference (P>0.05)

Continued, molecule first:

Molecule: COc1cccc2c1C(=O)c1c(O)c3c(c(O)c1C2=O)C[C@@](O)(C(C)=O)C[C@@H]3O[C@H]1C[C@H](N)[C@H](O)[C@H](C)O1 [Daunorubicin, daunorubicin]
IC50 (MCF-7/MX cells; 48 h): 0.431 ± 0.0102 µM

Molecule: O=C1c2c(O)ccc(O)c2C(=O)c2c(NCCNCCO)ccc(NCCNCCO)c21 [Mitoxantrone, mitoxantrone]
IC50 (MCF-7/MX cells; [4]): 25 ± 1.35 µM

From US12714749B2, “Anti-CK8 antibody and exosome compositions, methods of making, and methods of treating” (PEAK WAY GROUP INC., priority 2022, dated 2026)
